Source: patent US20170157251A1 (MacroGenics, published 2017)

Key:
[1] = biological target: T1, soluble human CD19-biotin (human, UniProt P15391 20-291, limits assumed, biotin (site not stated)); test: bifunctional (bispecific) ELISA: plate coated with soluble human CD3ε/δ, DART titrated, detected with soluble human CD19-biotin
T1 construct: Detection antigen of the bifunctional ELISA
T1 sequence (looked up): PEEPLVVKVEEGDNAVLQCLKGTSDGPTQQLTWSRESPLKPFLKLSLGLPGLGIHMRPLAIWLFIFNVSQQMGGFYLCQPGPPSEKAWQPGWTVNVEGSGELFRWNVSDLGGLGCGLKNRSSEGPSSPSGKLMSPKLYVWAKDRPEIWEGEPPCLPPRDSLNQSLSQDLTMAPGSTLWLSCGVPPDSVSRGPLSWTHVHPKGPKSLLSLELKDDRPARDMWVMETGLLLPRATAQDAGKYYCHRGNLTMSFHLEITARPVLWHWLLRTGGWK

human CD19 on cells = biological target: T2, human CD19 on cells (human, UniProt P15391 20-556); test: flow cytometry on human blood leukocytes, CD20+ gate (B cells); detection with biotinylated anti-E-coil/K-coil mAb and streptavidin-PE
T2 construct: whole, on cells; also called CD19 on human CD20+ B cells; CD19 on Raji/GF, HBL-2, Jeko-1 cells
T2 sequence (looked up): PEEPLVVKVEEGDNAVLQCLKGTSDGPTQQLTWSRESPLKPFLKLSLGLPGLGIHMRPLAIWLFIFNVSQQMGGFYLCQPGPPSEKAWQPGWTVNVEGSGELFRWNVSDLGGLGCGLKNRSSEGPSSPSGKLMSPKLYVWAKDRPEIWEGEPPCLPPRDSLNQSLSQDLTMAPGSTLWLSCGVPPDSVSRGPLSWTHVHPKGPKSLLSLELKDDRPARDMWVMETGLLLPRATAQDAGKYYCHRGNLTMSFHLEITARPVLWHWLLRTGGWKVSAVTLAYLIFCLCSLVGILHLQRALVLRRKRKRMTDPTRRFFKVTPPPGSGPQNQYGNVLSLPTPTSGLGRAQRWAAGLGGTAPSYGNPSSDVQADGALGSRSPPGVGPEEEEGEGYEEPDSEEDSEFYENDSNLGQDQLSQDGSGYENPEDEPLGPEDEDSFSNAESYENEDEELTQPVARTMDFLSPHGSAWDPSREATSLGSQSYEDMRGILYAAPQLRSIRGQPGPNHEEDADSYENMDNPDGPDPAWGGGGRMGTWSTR

human CD3 on T cells = biological target: T3, human CD3 on T cells (human, UniProt P07766 23-207; P04234 22-171); test: flow cytometry on human blood leukocytes, CD4+ and CD8+ gate (T cells); detection with biotinylated anti-E-coil/K-coil mAb and streptavidin-PE
T3 construct: also called CD3 on human CD4+ and CD8+ T cells; copies: 1 + 1

[2] = biological target: T4, cynomolgus monkey CD3 on T cells (cynomolgus monkey, UniProt Q95LI5 22-198; Q95LI8 22-171); test: flow cytometry on cynomolgus monkey blood leukocytes, CD4+ and CD8+ gate (T cells); detection with biotinylated anti-E-coil/K-coil mAb and streptavidin-PE
T4 construct: T cells were gated as CD4+ and CD8+; also called CD3 on cynomolgus monkey CD4+ and CD8+ T cells
T4 sequence (Q95LI5 22-198 limits assumed, chain 1 of 2): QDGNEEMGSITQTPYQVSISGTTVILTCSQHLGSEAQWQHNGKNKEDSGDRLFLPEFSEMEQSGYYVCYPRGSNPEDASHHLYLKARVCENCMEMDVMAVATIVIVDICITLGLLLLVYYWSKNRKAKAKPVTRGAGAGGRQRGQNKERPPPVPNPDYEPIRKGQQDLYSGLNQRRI
T4 sequence (Q95LI8 22-171 limits assumed, chain 2 of 2): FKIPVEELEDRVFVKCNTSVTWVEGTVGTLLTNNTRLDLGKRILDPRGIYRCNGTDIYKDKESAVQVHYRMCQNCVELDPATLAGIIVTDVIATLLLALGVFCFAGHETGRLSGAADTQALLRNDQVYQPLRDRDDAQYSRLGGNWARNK

T3 sequence (P07766 23-207 limits assumed, chain 1 of 2): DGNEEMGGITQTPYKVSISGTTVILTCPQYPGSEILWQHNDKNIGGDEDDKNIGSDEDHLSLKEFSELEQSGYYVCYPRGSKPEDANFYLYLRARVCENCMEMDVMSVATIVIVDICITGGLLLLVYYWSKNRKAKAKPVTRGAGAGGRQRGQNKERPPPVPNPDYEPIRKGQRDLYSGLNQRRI
T3 sequence (P04234 22-171 limits assumed, chain 2 of 2): as the sequence (Q95LI8 22-171 limits assumed, chain 2 of 2) above, with V5I, K15N, V20I, T32S, N33D, N34I, A64T, N74S, L83V, R141H counted along it

B1: Control DART 1 (Fluorescein×CD3) (bispecific antibody)
chain 1: DVVMTQTPFSLPVSLGDQASISCRSSQSLVHSNGNTYLRWYLQKPGQSPKVLIYKVSNRFSGVPDRFSGSGSGTDFTLKISRVEAEDLGVYFCSQSTHVPWTFGGGTKLEIKGGGSGGGGEVQLVESGGGLVQPGGSLRLSCAASGFTFSTYAMNWVRQAPGKGLEWVGRIRSKYNNYATYYADSVKGRFTISRDDSKNSLYLQMNSLKTEDTAVYYCVRHGNFGNSYVSWFAYWGQGTLVTVSSASTKGEVAACEKEVAALEKEVAALEKEVAALEKGGGDKTHTCPPCPAPEAAGGPSVFLFPPKPKDTLMISRTPEVTCVVVDVSHEDPEVKFNWYVDGVEVHNAKTKPREEQYNSTYRVVSVLTVLHQDWLNGKEYKCKVSNKALPAPIEKTISKAKGQPREPQVYTLPPSREEMTKNQVSLWCLVKGFYPSDIAVEWESNGQPENNYKTTPPVLDSDGSFFLYSKLTVDKSRWQQGNVFSCSVMHEALHNHYTQKSLSLSPGK
chain 2: QAVVTQEPSLTVSPGGTVTLTCRSSTGAVTTSNYANWVQQKPGQAPRGLIGGTNKRAPWTPARFSGSLLGGKAALTITGAQAEDEADYYCALWYSNLWVFGGGTKLTVLGGGGSGGGGEVKLDETGGGLVQPGRPMKLSCVASGFTFSDYWMNWVRQSPEKGLEWVAQIRNKPYNYETYYSDSVKGRFTISRDDSKSSVYLQMNNLRVEDMGIYYCTGSYYGMDYWGQGTSVTVSSASTKGKVAACKEKVAALKEKVAALKEKVAALKE
chain 3: not shown
notes: other arm is anti-fluorescein 4-4-20
binding result [1]: no binding (tested: about 5 µg/ml)
binding result (human CD19 on cells): no binding (tested: about 80 nM)
binding result (human CD3 on T cells): binds
binding result [2]: binds
